# Results as given in US20220409742A1, “NUCLEIC ACID NANOPARTICLES, PHARMACEUTICAL COMPOSITION COMPRISING SAME, DRUG COMPRISING DOXORUBICIN AND PREPARATION METHOD THEREFOR” (BAI YAO ZHI DA (BEIJING) NANOBIO TECHNOLOGY CO., LTD., priority 2018, published 2022).
# {Biotin} = biotin attached at the strand end; {Cy3} = Cy3 fluorescent dye
# B1: RNA nanoparticles: RNA nanoparticles self-assembled in Embodiment 1 from strands SEQ ID NO:52-54, C/U 2′F, 5′Biotin, 5′CY3 (nucleic acid)
# chain 1: CGCGCGCCCACCAGCGUUCCGGGCGCCGC
# chain 2: GCGGCGCCCGGUUCGCCGCCAGGCGGC
# chain 3: GCCGCCAGGCGGCCAUAGCGGUGGGCGCGCG
# modifications: chain 1: 2'-fluoro at CU, RNA at AG, 5' {Biotin}, backbone not given here; chain 2: 2'-fluoro at CU, RNA at AG, 5' {Biotin}, backbone not given here; chain 3: 2'-fluoro at CU, RNA at AG, 5' {Cy3}, backbone not given here; three-strand self-assembled RNA nanoparticle
# Tests used:
# HepG2 cells = test: Cytotoxicity of RNA nanoparticles in HepG2 cells (CellTiter-Glo); format: cell-based; conditions: 200 nM, 72 hours, CTG
# Protocol: (1) A RPMI1640+10% FBS+1% PS medium was used to culture HepG2 cells under 37 DEG C. and 5% CO2.
# (2) The HepG2 cells were digested by a trypsin, 100 μL of 5000 cells per well was inoculated in a 96-well plate, and cultured overnight under 37 DEG C. and 5% CO2.
# (3) Cell supernatant was removed on the second day, a sample to be tested was diluted with the culture medium, 200 nM of RNAh, RNAh-Biotine, RNAh-Dox and Dox were respectively added, 100 μL each was added to the plated cells, and each sample was repeated for 4 times.
# (4) After being cultured for 72 hours, 100 μL of a CTG reagent was added to each well, shaking was performed for 2 min, and standing was performed at a room temperature for 10 minutes, and a whole process was performed in the dark.
# (5) Finally Soft Max ProS software was used for reading.
# [1] = Serum stability of RNA nanoparticles, RPMI 1640 with 10% serum, non-denaturing gel; format: in vitro ADME; conditions: for RNA quantification result, RNA nanoparticle: RPMI 1640 with 10% serum, 37 DEG C.
# Protocol: (1) 350 μl of the PBS was absorbed into a RNA nanoparticle sample, and adequately mixed uniformly.
# (2) 2 μM of the RNA nanoparticles were incubated in the RPMI 1640 medium containing 10% serum.
# (3) After being incubated at 37 DEG C. for 10 min, 1 h, 12 h, and 36 h, samples were taken respectively.
# (4) After NanoDrop used for quantification, 200 ng of the RNA nanoparticlesnanoparticle were taken, the same volume of Tris-Glycine SDS sample buffer solution (2×) was added, and adequately mixed uniformly.
# (5) A piece of Novex™ 8% Tris-Glycine Mini gel was taken, the samples were loaded in order, a program was set in 200 V, 30 min, and electrophoresis was started.
# (6) After the electrophoresis was over, G250 staining was performed, it was placed on a horizontal shaker for 30 min to 1 h, and pictures were taken for imaging.
# [2] = Doxorubicin loading rate, physical loading; format: physicochemical; conditions: mass ratio doxorubicin:RNA nanoparticles 1:1, 55 DEG C., 3 h
# Protocol: 1) enabling a mass ratio of the doxorubicin and the RNA nanoparticles to be 1:1;
# 2) weighing 0.1 mg of a doxorubicin original drug and dissolving in 50 μL of DMSO, and then adding 300 μL of the PBS and mixing uniformly;
# 3) enabling RNA particles to be dissolved in 200 μL of the […] treated water, and adding into the doxorubicin-PBS mixed solution, uniformly mixing, and adjusting a pH to be about 7.5;
# 4) putting the whole solution in a water bath kettle at 55 DEG C., and reacting for 3 h;
# 5) after the reaction, directly adding 10 times of anhydrous ethanol in volume, and precipitating at 4 DEG C. for 4 h; and
# 6) washing for 4 times with 10 times of the anhydrous ethanol, and transferring to 1.5 mL of a EP tube. Subsequently, measuring a loading rate, herein the measuring method is the same as above, and a measuring result is that a doxorubicin loading rate is 15.5.
Molecule,HepG2 cell proliferation (%) Mean ± SEM (n = 4) (HepG2 cells),"serum stability (non-denaturing gel bands) ([1]; 1640 medium of 10% FBS, 10 min, 1 h, 12 h, 36 h at 37 DEG C.)","RNA quantification result, RNA nanoparticle ([1]; incubation 10 min)","RNA quantification result, RNA nanoparticle ([1]; incubation 1 h)","RNA quantification result, RNA nanoparticle ([1]; incubation 12 h)","RNA quantification result, RNA nanoparticle ([1]; incubation 36 h)","RNA quantification result, RNA nanoparticle ([1]; incubation time 0)",doxorubicin loading rate [2]
COc1cccc2c1C(=O)c1c(O)c3c(c(O)c1C2=O)C[C@@](O)(C(=O)CO)C[C@@H]3O[C@H]1C[C@H](N)[C@H](O)[C@H](C)O1 [doxorubicin],39.56%,–,–,–,–,–,–,–
B1,–,relatively stable,193.5 ng/µL,176.0 ng/µL,175.5 ng/µL,214.8 ng/µL,178.8 ng/µL,15.5
